Where a chain is given by its changes, count along the chain named. Names may count otherwise.
T1: Human TROP2 full length, on tumor cells (HCT116, MDAMB231, NCI-H292) (human, UniProt P09758 31-323)
T1 sequence: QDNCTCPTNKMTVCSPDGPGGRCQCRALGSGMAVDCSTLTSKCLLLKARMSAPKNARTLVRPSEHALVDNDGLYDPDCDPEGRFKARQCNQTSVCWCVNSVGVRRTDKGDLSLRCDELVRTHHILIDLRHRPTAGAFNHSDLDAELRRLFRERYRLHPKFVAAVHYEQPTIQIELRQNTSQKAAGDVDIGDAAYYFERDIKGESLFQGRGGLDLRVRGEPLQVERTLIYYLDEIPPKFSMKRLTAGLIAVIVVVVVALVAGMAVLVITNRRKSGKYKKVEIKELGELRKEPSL

B1: TCE-1 (TROP2 Fab x SP34.185 scFv, non-mutated, scFv on the Fab HC) (bispecific antibody)
light: DIQLTQSPSSLSASVGDRVSITCKASQDVSIAVAWYQQKPGKAPKLLIYSASYRYTGVPDRFSGSGSGTDFTLTISSLQPEDFAVYYCQQHYITPLTFGAGTKVEIKRTVAAPSVFIFPPSDEQLKSGTASVVCLLNNFYPREAKVQWKVDNALQSGNSQESVTEQDSKDSTYSLSSTLTLSKADYEKHKVYACEVTHQGLSSPVTKSFNRGEC
heavy: not shown
B2: TCE-2 (TROP2 Fab x SP34.185 scFv, non-mutated, scFv on the Fab LC) (bispecific antibody)
light: not shown
heavy: QVQLQQSGSELKKPGASVKVSCKASGYTFTNYGMNWVKQAPGQGLKWMGWINTYTGEPTYTDDFKGRFAFSLDTSVSTAYLQISSLKADDTAVYFCARGGFGSSYWYFDVWGQGSLVTVSSASTKGPSVFPLAPSSKSTSGGTAALGCLVKDYFPEPVTVSWNSGALTSGVHTFPAVLQSSGLYSLSSVVTVPSSSLGTQTYICNVNHKPSNTKVDKKVEPKSC
B3: TCE-3 (TROP2 Fab HC R98A TCE, scFv on the Fab LC) (bispecific antibody)
light: not shown
heavy: B2 heavy with R98A
B4: TCE-5 (TROP2 Fab HC D109A TCE, scFv on the Fab LC) (bispecific antibody)
light: not shown
heavy: B2 heavy with D109A
B5: TCE-6 (TROP2 Fab HC R98A TCE, scFv on the Fab HC) (bispecific antibody)
light: B1 light
heavy: not shown
B6: TCE-8 (TROP2 Fab HC D109A TCE, scFv on the Fab HC) (bispecific antibody)
light: B1 light
heavy: not shown
B7: TCE-22 (anti-CD3 scFv Y111A, anti-TROP2 wt) (bispecific antibody)
light: B1 light
heavy: not shown
B8: TCE-25 (anti-CD3 scFv V231A, anti-TROP2 wt) (bispecific antibody)
light: B1 light
heavy: not shown
B9: TCE-26 (anti-CD3 scFv L232A, anti-TROP2 wt) (bispecific antibody)
light: B1 light
heavy: not shown
B10: TCE-27 (anti-CD3 scFv W233A, anti-TROP2 wt) (bispecific antibody)
light: B1 light
heavy: not shown
B11: TCE-28 (anti-CD3 scFv Y234A, anti-TROP2 wt) (bispecific antibody)
light: B1 light
heavy: not shown

Experiments:
[1] = target: T1, Human TROP2 full length, on tumor cells …; test: cell-based or functional assay
[2] = target: T2, human CD3 epsilon, biotinylated (human, UniProt P07766 23-126, limits assumed, biotinylated (site not stated)); test: BLI, CD3e-biotin on sensor, 50 nM TCE
T2 construct: Printed in places as CD36, CD38, CD3c or CD3&; also called CD3e-bio; human CD3e-biotin

[3] = target: T2, human CD3 epsilon, biotinylated; test: BLI, CD3e-biotin on sensor (summary)
Experimental: The wild-type (non-mutated) and alanine mutated TCEs were evaluated for their ability to bind CD36 or TROP2 via kinetic binding measurements using biolayer interferometry (BLI). […] The TCEs diluted in buffer were then associated onto the antigen loaded biosensors. Sensors were then transferred to buffer where the TCEs were then dissociated from the sensors. Association and dissociation rates were measured in real time using an Octet® instrument.

[4] = target: T1, Human TROP2 full length, on tumor cells …; test: cell-based or functional assay; remark: listed apart in the source

T2 sequence (P07766 23-126 limits assumed): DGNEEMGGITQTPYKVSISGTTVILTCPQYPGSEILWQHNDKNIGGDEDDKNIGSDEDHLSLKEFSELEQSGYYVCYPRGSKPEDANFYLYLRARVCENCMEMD

Binder | TCE Cytotoxicity EC50, H292 + CD8+ T cells [1] [pM] | TCE Cytotoxicity EC50, HCT116 + CD8+ T cells [1] [pM] | TCE Cytotoxicity EC50, MDAMB231 + CD8+ T cells [1] [pM] | Response [2] | CD3 t1/2 [3] [min] | Kd [3] [nM] | Kd [2] [nM] | CD3 Octet response [3] | H292 Cytotox EC50 [4] [pM]
B1 | 1.3 | 28.6 | 12 |  |  |  |  |  | 
B2 |  | 1.6 | 1.2 |  |  |  |  |  | 
B3 | 0.4 | 22 | 7.7 |  |  |  |  |  | 
B4 | 0.2 | 5.8 | 2.6 |  |  |  |  |  | 
B5 | 6.3 | 142 | 77.2 |  |  |  |  |  | 
B6 | 4 | 83 | 26 |  |  |  |  |  | 
B7 |  |  |  | -0.0009 |  |  |  |  | 
B8 |  |  |  |  | 2.96 | 6.26 | 6.26 |  | 
B9 |  |  |  | 0.663 | 2.64 | 8.39 | 8.39 | 0.66 | 
B10 |  |  |  | 0.414 | 6.45 | 12.3 | 12.3 |  | > 1000
B11 |  |  |  | 0.674 | 1.66 | 11.1 | 11.1 | 0.67 | 

— US20250154278A1 (JANUX THERAPEUTICS, published 2025)
